Source: patent US20090191195A1 (MacroGenics, published 2009)

Target: T1, human FcγRIIB (human, UniProt P31994 43-310)
T1 construct: whole, on cells; Native receptor on human cells or in frozen tissue sections; also called CD32B
T1 sequence (looked up): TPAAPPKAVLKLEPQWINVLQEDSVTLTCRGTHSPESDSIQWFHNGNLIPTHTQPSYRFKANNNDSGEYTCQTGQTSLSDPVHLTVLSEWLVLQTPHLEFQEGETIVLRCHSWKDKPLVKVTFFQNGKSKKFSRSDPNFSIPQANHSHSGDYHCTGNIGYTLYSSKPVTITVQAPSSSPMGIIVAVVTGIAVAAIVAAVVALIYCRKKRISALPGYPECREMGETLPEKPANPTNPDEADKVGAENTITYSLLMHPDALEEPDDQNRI
Assay: immunohistochemistry, frozen lymph node, patient MG04-CHTN-19; grade = share of positive cells
Experimental: The remaining portions of these samples were placed in cryomolds and embedded in OCT cryocompound (Tissue-Tek). Once the blocks were ready, each was sectioned under a Cryostat (Leica Microsystems) at 6 microns. The slides were placed in 4° C. acetone and fixed for 10 minutes. Hours after fixation the slides were air dried and washed with phosphate buffer saline (PBS). Then endogenous peroxide activity was blocked by a 30 minute incubation in a 0.3% hydrogen peroxide solution. The slides were washed in PBS and incubated for 30 minutes with 10% normal goat serum in 2% normal human serum. After this step, the slides were divided in two groups. Two monoclonal antibodies were utilize and incubated on the same tissue in parallel, an anti-CD20 (1F5—a hybridoma, ATCC No. HB-9645, purified at Macrogenics) and the murine monoclonal anti-CD32B antibody, 2B6. Each group was incubated with one monoclonal antibody and their respective Isotype control, IgG1 (BD Biosciences, San Jose, Calif.) for the 2B6/anti-CD32B group and IgG2a (BD Biosciences) for the 1F5/anti-CD20 group. Mouse IgG1 and murine IgG2a were used as Isotype controls for anti-CD32B and anti-CD20, respectively. After one hour of incubation at room temperature, the slides were washed in PBS and incubated with a secondary antibody Goat anti Mouse labeled peroxidase (Jackson ImmunoResearch Laboratories, West Grove, Pa.). […]

B1: monoclonal antibody produced by clone 2B6 (ATCC accession number PTA-4591) (antibody, V domains shown)
VH: QVQLQQPVTELVRPGASVMLSCKASDYPFTNYWIHWVKQRPGQGLEWIGVIDPSDTYPNYNKKFKGKATLTVVVSSSTAYMQLSSLTSDDSAVYYCARNGDSDYYSGMDYWGQGTSVTVSS
VL: DILLTQSPAILSVSPGERVSFSCRTSQSIGTNIHWYQQRTNGFPRLLIKNVSESISGIPSRFSGSGSGTDFILSINSVESEDIADYYCQQSNTWPFTFGGGTKLEIK
notes: Mouse hybridoma antibody; mouse IgG1 was used as its isotype control; also called murine monoclonal anti-CD32B antibody, 2B6; anti-CD32B
Does B1 bind?
Result: binds
